Measurements published in the supplement of paper PMC9170038.

System: K4 kissing-loop RNA reporter
Assay: apparent KD of K4 kissing-loop reporter; higher = weaker reporter binding
Settings: Eterna round: R107
Method: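 RNA-MaP round R107: designed RNA switches with theophylline, tryptophan, arginine or FMN aptamers are transcribed on-chip within common flanks. They are titrated with a labelled K4 kissing-loop RNA reporter in RNA-MaP buffer (100 mM Tris pH 7.5, 80 mM KCl, 4 mM MgCl2), without ligand or with the indicated ligand. Median apparent KD per design.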

[1] = input ligand: theophylline 20 uM
[2] = input ligand: tryptophan 2.4 mM
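Further: bound reporter read as fluorescence of individual clusters on recovered sequencing chips by microscopy, with normalized cluster intensities fitted with a binding model.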

| Sequence | apparent KD of K4 kissing-loop reporter (input ligand: FMN 200 uM) [nM] | apparent KD of K4 kissing-loop reporter (input ligand: arginine 13.2 mM) [nM] | apparent KD of K4 kissing-loop reporter (input ligand: none) [nM] | apparent KD of K4 kissing-loop reporter [1] [nM] | apparent KD of K4 kissing-loop reporter [2] [nM] |
| --- | --- | --- | --- | --- | --- |
| AAAUAGAUCAGUCACCCAGUGAUGUUGGAAGGAGCGUGCGAAAGCACAGGUAGGUCGCCGAAAUAAAAUUGGCUGAUCAAAAUAA | 151 | 221 | 116 | 308 | 104 |
| GGCAGUGAUGUUGCCAGUGGCAGAUGCGAAGGAGCGCGGUGAGACGCAGGUAGGUCGCGCAUUGAAAUUGCUGUCACUAGAAUGC [whbob_Ex_Arginine_A_2t127] | 258 | 285 | 283 | 305 | 208 |
| UUUGGAUUGCGCUAAGAGUGCAAGCGCCAACGAGGACCGGUACGGCCGCCACUCGCGGAGGAGUCCAGUGAUGUUGGACGGCCCG [Orbile] | 326 | 222 | 601 | 178 | 183 |
| GGAUGGUAGGCGGCCGCCACUAAAACUGAACAAAUAUAAACCAGUGAUGUUGGUAUGAUGAAGUAUAGGACCGGGCCUAGAUAGA [Exclusion - Tryptophan B (Freestyle 1)] | 124 | 134 | 143 | 160 | 122 |
| AGAGUCGGCUGUGAUACCAGUCGUAUUACAACAUGUCGCAGUGAUGUUGCGAGAUAGGAUGACCCUUGGCAGCACUCAGUACGAU [Same State Theophylline B GF 8] | 347 | 277 | 421 | 503 | 323 |
| AAGCAGUCUCUUGUAGUCAUCGAAGAUGAACGAGGACCGGUACGGCCGCCACUCGGAGUGAUGUUCCGAAGGCUGCAAAAUAAAA [MatMod 18 - Jieux - Exclusion - Tryptophan A] | 300 | 297 | 309 | 404 | 324 |
| AAUGUACAGGGAAGGAGCGUCGUCCAGUGAUGUUGGAGUUAAAUACCAGUGAUGUUGGUUAGGCAGGUAGGUCGCCCUAAAGUAG [#09 K4 Arginine B Exclusion] | 102 | 71.4 | 80.1 | 86.5 | 82.1 |
| UAAUUUAUGUCUUUAAUAUAAUAAUCAGAUACCAGUGAUUUAUGACACCCUUGGCAGCUGUAUAGAGUGAUGUUCUUAUACAUAA [JR_Nu_ExcTheophyA_Sub020] | 388 | 504 | 483 | 547 | 294 |
| CGCGCCCAGCCGGAUACCAGUGACCCGCUGGGAACCGCGGGCCCAGAGUGAUGUUCGGGACACCCUUGGCAGCCGCCUGGGCGGG [#2 Same State - Theophylline B Attempt #16 (HarryS)] | 1350 | 606 | 597 | 460 | 608 |
| GCAGUGAUGUUGCGAAUCGGCCAUGAUACAGAGGAUAUCGUGCCUUCGAGAAGGUUGUAUAGAGGAUACGAUAUUAUAAAUGACG [Same State FMN A GF 1] | 353 | 384 | 432 | 436 | 348 |
| GCAGUGAUGUUGCGGAUGUACAGUGGCGUGCGAGGACCGGUACGGCCGCCACUCGUACAGAGCCAGCUAAUACAUCGAUAGGUGA [whbob_SS_Tryp_A_m6] | 289 | 177 | 239 | 296 | 322 |
| GGAUCCACCAGUGAUGUUGGAGAAAACUCCAAGGAUAUGACGAAAGUCAGAAGGUGGUAAUAAGACGUCAAAGACGUCGGAUCCA [FmnA 19 #SwitchBubble #K4Early] | 1400 | 149 | 101 | 323 | 150 |
| UUGUUUUACUGAAGGAGCGGCAAUUGAUACGUAGAUAUAGUGAUGUUAUAUAAGAUAGAGAGCCAGGUAGGUCGCAGAUGUGUUU [ExArgB.T] | 196 | 205 | 180 | 204 | 149 |
| AGGUACUACGGAAGGAGCGCACCAGUGAUGUUGGUGUGUGACCGUGACAUGGCAGUCAAGGUGCAGGUAGGUCGCCGUGGCCUUU [Anatartibe] | 143 | 113 | 146 | 122 | 115 |
| GGAUCUGCCAGUGAUGUUGGUUAAUAUAUCAAGGAUAUGACGAAAGUCAGAAGGUGAAAGACUGGACAAAGUCCAGUCGGAUCCA [KL-SSFMN-A20] | 237 | 312 | 352 | 460 | 270 |
| UUGGAGUGAUGUUCCAUAUCUUGAGCCGAAGGAGCGGCAUUAUUGCCAGGUAGGUCGCGGCAGAAGGUACCAGUGAUGUUGGAAA [Same State Arginine A GF 4] | 136 | 138 | 151 | 126 | 125 |
| AUGUCUUAUAAACUCAUGGUUUCGACAGAUACCAGCUUCGAGAGGAGCCCUUGGCAGCUGCAUGAGUGAUGUUCAUGUACGAAGA [KL-XTheoA6] | 370 | 336 | 516 | 315 | 301 |
| ACUAUCGAAAGAUAGUUCCCAGAGCUAGUAGAGGAUAUCUGGAAACAGAGAAGGCUACAAGAGUGAUGUUCUUCUAGCUUUGGGA | 403 | 291 | 316 | 337 | 349 |
| GCUAUGGUAGGAAGGAGCGCUUAUUUAUUAAUAAGAGUGAUGUUCGAUAGUAGAUAUUUAUAGCAGGUAGGUCGCCUACUAUAGC [Arginine B K4 12] | 186 | 196 | 167 | 341 | 167 |
| UAGCGGUAGAGGCCACCGCUAUUCUGAGAAGGAGCGCAGAUGACUGCAGGUAGGUCGCUUAGAGCUUGCAGUGAUGUUGCAAGUU [Tebete] | 171 | 175 | 179 | 145 | 131 |
| GUAUCGCUAGGAGGAUAUUUCAAUUUGACUCUUUGAGUUUUUACGGAGUGAUGUUCCGUUUUACGGAAAGAAGGCCUAGUGAUAC [FMN B 15] | 121 | 138 | 162 | 159 | 161 |
| GAUUUAGAGGCGGCCGCCACUAGUGAUGUUAGUGAUGUUUGAUACUGUAUAUAUCGGCGUGUAGAUAGGACCGGGCCAGAUGGAG [tbqqmullin] | 281 | 157 | 235 | 229 | 221 |

| Sequence | apparent KD of K4 kissing-loop reporter (input ligand: FMN 200 uM) [nM] | apparent KD of K4 kissing-loop reporter (input ligand: arginine 13.2 mM) [nM] | apparent KD of K4 kissing-loop reporter (input ligand: none) [nM] | apparent KD of K4 kissing-loop reporter [1] [nM] | apparent KD of K4 kissing-loop reporter [2] [nM] |
| --- | --- | --- | --- | --- | --- |
| GAUUUAGAGGCGGCCGCCACUAGUGAUGUUAGUGAUGUUUGAUACUGAAUAUAUCUGCGAGUAGAUAGGACCGGGCCAGAUGGAG [plmfmullin] | 225 | 154 | 195 | 179 | 182 |
| GCGAAGAGAGAAGGAUAUUAGUAAUGCGUCAUGCGCCCUUACCAGUUAGUGAUGUUAACAAUACAUUAAGAAGGUCUCGGAAUCC [theeternabot_sameState_KL_FMN_B_50] | 297 | 169 | 187 | 215 | 185 |
| GGAAAGCCAGUGAUGUUGGCAUAAACUGAAGGAGCGCGUGAAAACGCAGGUAGGUCGCAGAACCUUGCCAACUAUAUUAUUUACC [Ex Arginine A K4 21] | 128 | 221 | 160 | 221 | 135 |
| AAUAAUAAUAAAUAAAGAUUGAUGAGCAAACGAGGACCGGUACGGCCGCCACUCGAGUGAUGUUCGAGAAGCUCAUCAAUCAUAA [AK4.8 Exc Tryptophan A] | 147 | 134 | 138 | 112 | 337 |
| UGAUAGGACAGAAGGAGCGGGAGUGAUGUUCCCAAAAGUAUAAGGUGUCAAAAGACACCCUCCCAGGUAGGUCGCUGUCCUAUCU | 153 | 330 | 353 | 302 | 367 |
| AGUGAUGUUGUGUUAUCUUAGUGAAGUGAUCGAGGACCGGUACGGCCGCCACUCGAGUGAUGAGUGAGUGAUGUUUGUUUAGGGA [vvbmullin] | 818 | 673 | 1080 | 931 | 561 |
| GGAUAGGAUAGAGGAUAUGGCUUACGCAGAAAUAACUUAUUGUGUAAAUCCAUAGGGAGUGAUGUUCCAGAAGGCUGUCCUAUCG [MatMod 17 - Jieux - Exclusion - FMN B] | 415 | 212 | 251 | 244 | 201 |
| AAUACGCCGAAAGGAUAUAUAGAACAUCAAGGGCGCUGACUUUGCUAAAUCACAAGUGAUGUUUGUAUAGAAGGUUCGCAGUCAA [theeternabot_exclusion_KL_FMN_B_30] | 245 | 427 | 500 | 452 | 437 |
| CCAUCGCUAUUCGAUACCAGCCAAGAGGUCUUUGGCCUCUUAAUGGAGUGAUGUUCCAUUGGCCCUUGGCAGCGAAUAGUGAUGG [Theophylline B K4 18] | 771 | 489 | 723 | 823 | 798 |
| UUGGCUGGACGGGAUACCAGCCAAAUCGUGUGCUUGGGAUGUCUAAGAGCCAGUGAUGUUGGCCCUUGGCAGCCCUCCCAGCUUG [Inontixe] | 124 | 88.6 | 97.1 | 134 | 98.4 |
| GCCGUACGCAUGGAUACCAGCAUCGACUCAUAUACAGUGAUGUUGUGUAAUGACCUCAUUUGCCCUUGGCAGCCAUGCGUACGGC | 471 | 291 | 620 | 857 | 800 |
| GUGGAAUUAUGAAAGUGGUUUUAUAAGGAAGGAGCGGCCGAAAGGCCAGGUAGGUCGCCUAUUGACAGUGAUGUUGUUAUAUGGA [#13] | 105 | 180 | 103 | 168 | 75 |
| GUGAAGGAGCUGCAGUGAUGUUGCAGAAACUAGGAUAUCAGGAAACUGAGAAGGAGUCAACUCCUUCACCUAAAUACUGCAGAAA [KL-SSFMN-A23] | 104 | 130 | 158 | 157 | 147 |
| AAAAUUAAGGCCGAAUAAACUUAUUUCAUACGAGGACCGGUACGGCCGCCACUCGAGUCAAGUGAUGUUUGACUAUCUAUUAUUA [JR_ExcTryptoA_Sub009] | 61.4 | 87.1 | 68.7 | 83 | 54 |
| UUUUAAAUGUCUGAUACCAGAGAAAAUAUAUGUAGUGAUGUUACAUACAAAUUUAAUAAGCUCCCUUGGCAGCAGUAUGAAUUUU [AstrosExc-TheB#15] | 44.6 | 66.7 | 55.9 | 67 | 49.5 |
| UCCUAGGCUCGAAAGAGCCUAGGAUUAUCUCAGGAUAUCCGGAAACGGAGAAGGGAGAAACUAGUGAUGUUAGGGAUUCCCUCUU | 421 | 110 | 145 | 135 | 126 |
| AGGUUUUGCGGAGGAUAUGCACUGAGGAGGAGAAUAUAGUGAUGUUAUAUAAGAGGAAGGAGAAGAGUAGAAGGCCGUGAGGUUU [SSFMNB.N] | 144 | 109 | 115 | 124 | 82.1 |
| AAGCAGUCACUCGUAACCAUCGAAGAUGGUCGAGGACCGGUACGGCCGCCACUCGGAGUGAUGUUCCGAAGACUGCAAAAUAAAA [#SwitchBubble 12] | 237 | 238 | 299 | 292 | 607 |
| CGAGUACAUUGCGAUACCAGCGAUAGCAGUUCAACGCGCAGUCCGUUUAGUGAUGUUAGACGCCCUUGGCAGCGCUUCCUGGCAA [theeternabot_exclusion_KL_Theo_B_44] | 519 | 324 | 460 | 520 | 393 |
| AAAAUAAAUCAGUGAUGUUGGUAUCUGGAUACCAGCGAUAAUAAUCGCCCUUGGCAGCCAUGGACGUACAAAAUAAGUACGUCCU [MatMod 18 - Jieux - Same State - Theophylline A] | 285 | 154 | 226 | 337 | 200 |
| UGACUACAAAAGGAAUAAUCCUAGUGAUGUUAGGAUAUGCUGAUAAGCAGAAGGAACGGAGAUCGAAAGAUCUCAAAUGUAGUCU [whbob_Ex_FMNA__2th191] | 153 | 89.8 | 82.9 | 112 | 86 |
